Data on 1 molecule can be found in paper PMC11976907 (Nature Communications, 2025).

In the test the target is T1, human TEX10 (43-929), His6-MBP fusion (human, UniProt Q9NXF1 43-929).
T1 sequence (looked up): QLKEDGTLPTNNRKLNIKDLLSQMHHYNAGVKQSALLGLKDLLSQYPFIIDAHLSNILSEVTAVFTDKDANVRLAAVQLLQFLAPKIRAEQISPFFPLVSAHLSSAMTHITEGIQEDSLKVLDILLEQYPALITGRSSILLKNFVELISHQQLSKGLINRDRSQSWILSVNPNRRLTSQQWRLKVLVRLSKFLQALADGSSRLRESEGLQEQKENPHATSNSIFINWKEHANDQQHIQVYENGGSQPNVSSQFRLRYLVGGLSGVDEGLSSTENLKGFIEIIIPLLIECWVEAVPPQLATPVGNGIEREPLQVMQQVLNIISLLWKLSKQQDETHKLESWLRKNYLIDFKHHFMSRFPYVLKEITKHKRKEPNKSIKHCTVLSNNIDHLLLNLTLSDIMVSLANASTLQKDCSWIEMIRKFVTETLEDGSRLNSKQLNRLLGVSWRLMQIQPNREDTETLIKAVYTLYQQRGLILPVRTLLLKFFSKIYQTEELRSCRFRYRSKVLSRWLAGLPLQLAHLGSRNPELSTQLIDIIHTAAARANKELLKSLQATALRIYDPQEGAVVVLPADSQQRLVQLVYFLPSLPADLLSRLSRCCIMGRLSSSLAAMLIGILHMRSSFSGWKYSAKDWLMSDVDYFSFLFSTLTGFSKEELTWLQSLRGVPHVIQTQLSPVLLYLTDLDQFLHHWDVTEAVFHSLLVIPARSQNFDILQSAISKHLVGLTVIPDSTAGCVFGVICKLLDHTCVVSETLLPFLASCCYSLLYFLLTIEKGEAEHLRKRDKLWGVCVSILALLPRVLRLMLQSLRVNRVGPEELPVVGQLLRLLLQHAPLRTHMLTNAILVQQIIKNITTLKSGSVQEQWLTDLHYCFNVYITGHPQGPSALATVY
Nature of the test: cryo-EM structure.

B1: human PELP1 (residues 1-642, Rix1 domain) (domain or fragment)
chain: not shown
On to B1, for which the binding result is “binds”.
